How the values were obtained:
[1] = molecular target: Envelope glycoprotein (E) of antigenic variant DENV-4 v4 (Leu for Pro at position 176 in E) (dengue virus type 4) (UniProt P09866)
[2] = molecular target: Envelope glycoprotein (E) of parental DENV-4 (FRhL) (dengue virus type 4) (UniProt P09866)
[3] = molecular target: Envelope glycoprotein (E) of antigenic variant DENV-4 v3 (Glu for Lys at position 174 in E) (dengue virus type 4) (UniProt P09866); experiment: cell-based or functional assay
[4] = molecular target: Envelope glycoprotein (E) of antigenic variant DENV-4 v4 (Leu for Pro at position 176 in E) (dengue virus type 4) (UniProt P09866); experiment: cell-based or functional assay
[5] = molecular target: Fc receptors on K562 cells; experiment: cell-based or functional assay

Row | Substance | Kd [1] [nM] | Kd [2] [nM] | PRNT50 titer [3] [µg/mL] | PRNT50 titer [4] [µg/mL] | enhancing activity of DENV-4 infection in K562 cells, % of cells infected [5] [%]
1 | Humanized IgG 5H2 ΔD (IgG1 5H2 with a 9-amino-acid deletion, positions 231-239, at the N-terminus of the CH2 domain) (antibody) | 0.32 | 0.23 | > 10 | 0.5 | 
2 | IgG 1A5 ΔA (replacement amino acids at 327, 330 and 331 from the Fc of IgG4) (from UniProt P01857 1-330) (antibody) |  |  |  |  | 37.6
3 | IgG 1A5 ΔB (replacement amino acids at 233-236 from the Fc of IgG2) (from UniProt P01857 1-330) (antibody) |  |  |  |  | 24
4 | IgG 1A5 ΔC (replacements of both variants ΔA and ΔB) (from UniProt P01857 1-330) (antibody) |  |  |  |  | 18.8
